Laboratory results reported in the supplement of paper PMC9170038.

System: MS2 coat protein
Assay: apparent KD of MS2 coat protein; designed switch direction (-1 OFF switch, 1 ON switch): 1; higher = weaker reporter binding
Summary of the method: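 Normalised cluster fluorescence was curve-fitted, and each design's median over clusters is its apparent KD. Before this, SNAP-549-labelled MS2 coat protein was titrated from 0.7 or 1.5 nM, doubling to 3 µM, over RNA switches transcribed on Illumina chips by stalled E. coli RNA polymerase. Titrations had no input, 200 uM small-molecule ligand, or an oligonucleotide input, and steps lasted 0.8–1.5 h (lowest) to 10–20 min (highest).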

[1] = input ligand: microRNA oligo, concentration not stated
[2] = Eterna round: R95, input ligand: FMN 200 uM
[3] = Eterna round: R95, input ligand: microRNA oligo, concentration not stated
[4] = Eterna round: R95, input ligand: none

Sequence | apparent KD of MS2 coat protein (input ligand: FMN 200 uM) [nM] | apparent KD of MS2 coat protein [1] [nM] | apparent KD of MS2 coat protein (input ligand: none) [nM] | apparent KD of MS2 coat protein [2] [nM] | apparent KD of MS2 coat protein [3] [nM] | apparent KD of MS2 coat protein [4] [nM]
ACAUGAAAUUUAGGAUAUUUUGUACCUACAUGUGACAUGAGGAUCACCCAUGUGGUAAGUAUAAGAAAGAAGGAAAAGAUAUGU [Equivalence 8 - Jieux - Same State NG 2] (Eterna round: R96, puzzle: Same State NG 2) | 61.1 | 41.2 | 64.9 | – | – | –
CCGCGCUGUCGAGAGGAUAUGCGGUGAUGGACAUGAGGAUCACCCAUGUUAGCGAUAGCAUUACUGUAGAAGGCUCUACAGCGGC [JL-ss2-3.10 ViennaUCT mod] (puzzle: Same State 2) | – | – | – | 12.9 | 18.3 | 21.3
UUGUUUUGUAAUUAACAUGAGGAUCACCCAUGUCUUGGCACAGAGGAUAUACAUGUUUGUUUGUAGUAGAAGGCUGUUUAUUGU [JR_SSNG3_Sub096] (Eterna round: R96, puzzle: Same State NG 3) | 128 | 116 | 198 | – | – | –
AGUCCAGCCUGAGCUGGACAAAAGCAUGUACAUGAGGAUCACCCAUGUUCAUGUACAAGCUUUUUGCUCGUCUUGAA [salish99_208a_r3_095x] (Eterna round: R96, puzzle: Sensor for hsa-mir-208a) | 646 | 16.1 | 572 | – | – | –
GUCAGCGAUUGAGGAUAUCACGUCGAAUAGACGUGAGAAGGCGAUCAUAACAUGAGGAUCACCCAUGUAUUACAUGAAGCUGAC [SSNG1/5-A1] (Eterna round: R96, puzzle: Same State NG 1) | 15.2 | 22.4 | 29.1 | – | – | –
UACAAUCUAUCUGAGGAUAUCAUGAAAAAAACAUGAGGAUCACCCAUGUGCAGGAAAACUGCAUAUGAGAAGGCAGAUAGAUUGU [salish99_SS2_r3_006] (puzzle: Same State 2) | – | – | – | 32.4 | 971 | 1650
AAGAUACAUGAGGAUCACCCAUGUCGAGAGAGACGAGGAUAUCUGAAUCGAUUAGAUUACGGAGAAGGCGUGAAAA [LROPPY Same State 1 - v07_deltaG=1.9] (Eterna round: R96, puzzle: Same State 1) | 19.6 | 22.2 | 29.7 | – | – | –
GCUACCAUUGAAGCCUACAUGAGGAUCACCCAUGUAUGUAGGCAGGAUAUCGAUUGCUUUGCGAUCGAGAAGGGCUUAGGUAGC [JL SSNG3 1.30] (Eterna round: R96, puzzle: Same State NG 3) | 21.6 | 47.5 | 60.8 | – | – | –
UAGAGAGGAAGCGAGGAUAUCGUGUUAGGUACAUGAGGAUCACCCAUGUUUUAGGUAGAGGUAGGCGAGAAGGCGCAGGAGAGGA [JR_SS2_Sub091] (puzzle: Same State 2) | – | – | – | 24.9 | 29.2 | 24.4
UAGACAAGCUUUAUGUUCUUCCUUUUCCUACAUGAGGAUCACCCAUGUAGUCUGUCGAUUGUGAGUGUAGUUGAGAU [JR_SHM208A_Sub025] (puzzle: Sensor for hsa-mir-208a) | – | – | – | 18.7 | 16 | 18.7
AAGAAGACGAACAAGGAUAUGUCAAAGGAAACAUGAGGAUCACCCAUGUAGAGAUUGGAAAAGAAACAGAAGGUGUACAGAAAGA [JR_SS2_Sub005] (puzzle: Same State 2) | – | – | – | 24.8 | 33.3 | 35.1
AACAUUCUAUCUCAGGAUAUCAUGUCAAAGACAUGAGGAUCACCCAUGUACCAGGAAACUGGUUAUGAGAAGGGAGAUAGAAUGG [Mat - Same State 2 - Mod - D48] (puzzle: Same State 2) | – | – | – | 182 | 195 | 624
AGUCCAGCCUGAGCUGGACAAAAGCAUGUACAUGAGGAUCACCCAUGUUCAUGUACAAGCUUUUUGCUCGUCUUAUG [salish99_208a_r3_051] (puzzle: Sensor for hsa-mir-208a) | – | – | – | 1040 | 17 | 634
AACCAGGCCAGAGGAUAUGGGAAAGGAAGUGUACUAGAAGGCUGCAGCCUGAACAAACAUGAGGAUCACCCAUGUAAAACGGUG [PowerStrip SSNG 1.27] (Eterna round: R96, puzzle: Same State NG 1) | 296 | 150 | 304 | – | – | –
GUGAAGAAUUAAGGAUAUUGAAUACAUAUGUUUAACAUGAGGAUCACCCAUGUGGGUUGCGGUAUCGAGAAGGUAAAUUACUGG [salish99_SSNG2_r04_032] (Eterna round: R96, puzzle: Same State NG 2) | – | 81.7 | – | – | – | –
ACUCUCACAGUAGGAUAUGUAGGAUAUGCCUACAUGAGGAUCACCCAUGUAAACAUGGCAGAAGGAUAGAAGGACUGACAUGGG [pwkr ssNG2 2FMN + 1F5.3] (Eterna round: R96, puzzle: Same State NG 2) | 274 | 233 | 278 | – | – | –

Sequence | apparent KD of MS2 coat protein (input ligand: FMN 200 uM) [nM] | apparent KD of MS2 coat protein [1] [nM] | apparent KD of MS2 coat protein (input ligand: none) [nM] | apparent KD of MS2 coat protein [2] [nM] | apparent KD of MS2 coat protein [3] [nM] | apparent KD of MS2 coat protein [4] [nM]
UGCCUGAGUCGAGGAUAUUAUGGAUCCUUUAAUACAUGAGGAUCACCCAUGUAAUUAAUUAUACAUGAGAAGGUGACUCAGGCU [SSNG2/11-B3] (Eterna round: R96, puzzle: Same State NG 2) | 24.3 | 194 | 253 | – | – | –
GUGGUCAGACAUGAGGAUCACCCAUGUGGAAUAAAUAAGGAGAAGGAUAUCGAAUAUAGGAUAUACGAGAAGGUCUGGUUGGUG (Eterna round: R96, puzzle: Same State NG 3) | – | 75.2 | – | – | – | –
CCGAAAGGAGUAGGAUAUGUAGGAUAUUCCUACAUGAGGAUCACCCAUGUUCGCAUGGAAGAAGGACAGAAGGACACGGAAACG [pwkr ssNG2 2FMN + 1F5.14] (Eterna round: R96, puzzle: Same State NG 2) | 212 | 19 | 66.2 | – | – | –
AAACACGGCAAAACGCCGUGACAUGAGGAUCACCCAUGUACACAGGAUAUCAUGGCAAAACACCAUGAGAAGGGUGAUCAAGAC [Zaleala] (Eterna round: R96, puzzle: Same State NG 3) | 30.7 | 26.1 | 34.9 | – | – | –
GGCGGCCUGGGAGGAUAUCGGGCCCUUUGGGCCCGAGAAGGUCCGGAGCCUCUGACAUGAGGAUCACCCAUGUAGGCUGCUGCC [first try] (Eterna round: R96, puzzle: Same State NG 1) | 45.4 | 186 | 154 | – | – | –
GUGGUGGGUUGAGGAUAUUGGUUGUUGUUGUCCCACAUGAGGAUCACCCAUGUGGGUUGUGGUUUUGAGAAGGUUGGUUGCCGG [salish99_SSNG2_r04_053] (Eterna round: R96, puzzle: Same State NG 2) | – | 15 | – | – | – | –
CGUCCGGCCUGUGCUGGCCGGUGGCUUGUACAUGAGGAUCACCCAUGUUCUUGUGCUGGCUUUUUGCUCGUCGUGUG [salish99_mir208a_r3_023] (puzzle: Sensor for hsa-mir-208a) | – | – | – | 32.6 | 19.8 | 37.9
ACGCCUAAACGGCGAAAACGACAUGAGGAUCACCCAUGUACACAGGAUAUCAGCCUGCAACAGGCUGAGAAGGGUGAACCUAAA [Atatmadiar] (Eterna round: R96, puzzle: Same State NG 3) | 711 | 35.5 | 155 | – | – | –
ACAUGAGAGAUAGGAUAUGCUGUACCUACAUGUGACAUGAGGAUCACCCAUGUGGUAAGUAUGAGGCAGAAGGAUCAGAUAUGU [Equivalence 49 - Jieux - Same State NG 2] (Eterna round: R96, puzzle: Same State NG 2) | 13.6 | 17.3 | 23.2 | – | – | –
GUGGUCAGACAUGAGGAUCACCCAUGUGGAAUAAAUAAGGAGAAGGAUAUCGAAUAUAGGAUAUACGAGAAGGUUUGGUUGGUG (Eterna round: R96, puzzle: Same State NG 3) | 120 | 67.3 | 90.6 | – | – | –
GCGAGCGUACUUGCUACAUGAGGAUCACCCAUGUUCGUUGGACAGGAUAUGGUACCGUUUCGGUACCAGAAGGGUUCACAUGUG [JL SSNG3 3.78] (Eterna round: R96, puzzle: Same State NG 3) | 142 | 158 | 242 | – | – | –
AGGUGGUGUGGAAAGGAUAUACGGUUGAGGACAUGAGGAUCACCCAUGUGGUAGAGGACGUAAGGGUAGAAGGUUCGGGAUUGGU [JR_SS@_Sub022] (puzzle: Same State 2) | – | – | – | 41.2 | 36.5 | 41.7
AGUAGUGUAACAUGAGGAUCACCCAUGUAAGUAGAUGUAACCUAGGAUAUGGAUGAUAUGUUAGUCCAGAAGGAGGAUUGUUUA [JR_SSNG3_Sub038] (Eterna round: R96, puzzle: Same State NG 3) | 20.6 | 36.7 | 34.8 | – | – | –
AGCUAUCGAAAACGAUAGCAAAAGCAUGUACAUGAGGAUCACCCAUGUCAUGUACAAGCUUUUUGCUCGUUUUAAAA [Zipper 23 - 15] (puzzle: Sensor for hsa-mir-208a) | – | – | – | 20.1 | 37.8 | 52.5
AUAUGAGGAGCAGGAUAUGCGAAGAAGAAAGAAGUAGAAGGGCUCAUGGGACGACAUGAGGAUCACCCAUGUACUACCCGAUGA [AK SSNG1-V2-8] (Eterna round: R96, puzzle: Same State NG 1) | 49.8 | 66.7 | 55.9 | – | – | –
